For data set [1], the system named is PKC enzymes (cPKCs). As to the kind of experiment: Phosphorylation of MARCKS peptide by endogenous PKCs in IMR-32 cells. The data set is classed as cell-based, human.
The subject of data set [2] is peripheral blood lymphocytes. As to the kind of experiment: Peripheral blood lymphocyte survival and blastogenic response to mitogens. Format: cell-based. The note with it: primary lymphocytes of pigs, mice and human.
Data set [3] addresses T1, PKC epsilon (Homo sapiens, UniProt Q02156).
T1 sequence (Q02156 1-737): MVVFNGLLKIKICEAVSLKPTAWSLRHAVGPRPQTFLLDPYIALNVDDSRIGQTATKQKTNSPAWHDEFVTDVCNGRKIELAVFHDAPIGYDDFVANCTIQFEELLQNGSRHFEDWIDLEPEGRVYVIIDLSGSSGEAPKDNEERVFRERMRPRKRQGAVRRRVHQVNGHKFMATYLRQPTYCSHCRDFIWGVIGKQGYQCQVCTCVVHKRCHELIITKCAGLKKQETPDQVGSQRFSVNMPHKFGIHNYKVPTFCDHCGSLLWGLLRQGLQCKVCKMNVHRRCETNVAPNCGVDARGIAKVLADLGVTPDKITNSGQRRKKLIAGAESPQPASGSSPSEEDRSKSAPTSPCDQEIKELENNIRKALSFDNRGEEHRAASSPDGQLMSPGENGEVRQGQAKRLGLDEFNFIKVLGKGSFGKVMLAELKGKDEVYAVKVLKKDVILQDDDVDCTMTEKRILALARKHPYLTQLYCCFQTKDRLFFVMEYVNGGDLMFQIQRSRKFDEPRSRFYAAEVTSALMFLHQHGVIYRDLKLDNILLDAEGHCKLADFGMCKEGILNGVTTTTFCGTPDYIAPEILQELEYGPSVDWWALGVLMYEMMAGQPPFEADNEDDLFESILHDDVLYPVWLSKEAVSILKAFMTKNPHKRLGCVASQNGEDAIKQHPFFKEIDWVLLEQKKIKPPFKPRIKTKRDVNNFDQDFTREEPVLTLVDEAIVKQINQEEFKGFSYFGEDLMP
As to the kind of experiment: Kinase-Glo Luminescent Kinase Assay. The data set is classed as biochemical. On the set-up: purchased. The procedure: (§1) Compounds TIM 10, 11, 13, 14, 15, and 18-22 (see Table 28) were tested for their ability to inhibit the activity of PKC-alpha, beta 1, delta and epsilon isoforms the Kinase-Glo™ Luminescent Kinase Assay (Promega, Cat # V6712/3/4) following the manufacturer's instructions.
A general note: In Kinase-Glo more light means more ATP remaining.

For data set [4], the target named is PKC beta 1 (Homo sapiens, UniProt P05771). As to the kind of experiment: Kinase-Glo Luminescent Kinase Assay. The data set is classed as biochemical. On the set-up: purchased. The note with it: for inhibition of PKC beta 1 activity (in words): Kinase-Glo. The protocol: as §1
For data set [5], the target named is PKC alpha (Homo sapiens, UniProt P17252). As to the kind of experiment: Kinase-Glo Luminescent Kinase Assay. Format: biochemical. The note with it: for inhibition of PKC alpha activity (in words): Kinase-Glo. The protocol: as §1
Data set [6] addresses PKC delta (Homo sapiens, UniProt Q05655). Kind of data set: Kinase-Glo Luminescent Kinase Assay. The data set is classed as biochemical. The note with it: for inhibition of PKC delta activity (in words): Kinase-Glo. The protocol: as §1
Data set [7] deals with LS180 human colon cancer cells. Kind of data set: Survival of doxorubicin-resistant colon cancer cells, trypan blue exclusion. The note with it: 50 ng/ml; 72 hrs. The data set is classed as cell-based. The protocol: Highly tumourigenic human colon cancer cells (LS180; ATCC # CL-187) which constitutively express multi-drug resistance (MDR) were used for this experiment. LS180 cells were seeded in 6 well plates at a density of 2×10^5. After a 24 hr recovery cells were treated with 50 ng/ml of doxorubicin, 2.5 μM compound TIM 10, or a combination of doxorubicin and compound TIM 10 (2.5 μM and 5 μM) for 72 hrs. Note that compound TIM 10 was added to the cell culture medium; no protocol was used to force the compound into the cell. The cells were then trypsinized and counted using the standard trypan blue dye exclusion assay.

The target of data set [8] is T2, PKC-α (Homo sapiens, UniProt P17252). Kind of data set: Competition of PRE with PKC-α antibody binding on Western blot, Protocol A, IMR-32 lysate. On the set-up: endogenous PKC-α in (A) untreated human neuroblastoma (IMR-32) cells; endogenous in cells; host or cells: IMR-32 human neuroblastoma cells. The note with it: IMR-32 cells. The protocol: The ability of the PRE 1, 2 and 3 (see Table 3 above) to interfere with the binding of a PKC-α-specific polyclonal antibody to PKC-α was determined using the following protocol.
(§2) Cell lysates from either IMR-32 (human neuroblastoma) cells or C6Cx43 cells (rat glioma transfected cells overexpressing connexin 43) were obtained using standard protocols and the proteins of the lysate were separated by SDS PAGE electrophoresis and electrotransferred onto a nitrocellulose membrane. The membrane was incubated for 30 minutes in blocking buffer (TBST) containing the test peptide at either 5× or 20× the concentrations of the primary antibody. A primary polyclonal antibody specific for PKC-α (Santa Cruz Biotechnology, Inc., CA) was then added (15 μg/ml) and the membrane incubated for a further 45 minutes. Finally, the primary antibody was detected with a secondary antibody conjugated to alkaline phosphatase using standard procedures. The intensity of the band corresponding to PKC-α was assessed by scanning and densitometry using the Gel-Pro software (Media Cybernetics) to obtain relative band intensities (average of 3 replicas). Control assays were conducted as described above except that blocking buffer without peptide was used.
The results are expressed as relative band intensity and as a percentage of the intensity of the corresponding band in the control assay (“Relative intensity (%)”). “% inhibition” relates to the percentage of the PKC-α band that is inaccessible to the antibody.
On the technique in general: In western blotting, separated proteins are transferred to a membrane and probed.

The target of data set [9] is T2, PKC-α. As to the kind of experiment: Competition of PRE with PKC-α antibody binding, Protocol B (peptide added to cell extract before electrophoresis), IMR-32. On the set-up: endogenous PKC-α in (A) untreated human neuroblastoma (IMR-32) cells; endogenous in cells; host or cells: IMR-32 human neuroblastoma cells. The note with it: 100 μg. The procedure:
Peptides PRE 3 and PRE 4 (see Table 4) were tested for their ability to interfere with the binding of isoform-specific polyclonal antibodies (Santa Cruz Biotechnology, Inc.) to PKC-α, PKC-βI or PKC-βII using the general protocol described in Example 3.

For data set [10], the target named is T3, PKC-β (Homo sapiens, UniProt P05771).
T3 construct: PRE 2 and PRE 3 in IMR-32 Neuroblastoma Cells: Protocol A; endogenous in cells; host or cells: IMR-32 human neuroblastoma cells
Kind of data set: Competition of PRE with PKC-β antibody binding, Protocol B, IMR-32. The note with it: 100 μg. The procedure:
The ability of the peptides PRE 2 and PRE 3 (see Table 4) to interfere with the binding of a PKC-α-specific polyclonal antibody (Santa Cruz Biotechnology, Inc.) to PKC-α was determined using a modified version of the protocol outlined above in which the test peptide was added directly to the cell extract prior to electrophoresis at a concentration of either 5× or 15× the concentration of the protein applied to each well of the gel for the Western blots (20 μg).
Peptides PRE 2 and PRE 3 (see Table 4) were tested for their ability to interfere with the binding of a PKC-β-specific polyclonal antibody (Santa Cruz Biotechnology, Inc.) to PKC-β using the general protocol described in Example 3.

For data set [11], the target named is T3, PKC-β. As to the kind of experiment: Competition of PRE with PKC-β antibody binding, Protocol A, IMR-32 lysate. The procedure: as §2
Peptides PRE 1, PRE 2 and PRE 3 (see Table 4) were tested for their ability to interfere with the binding of a PKC-β-specific polyclonal antibody (Santa Cruz Biotechnology, Inc.) to PKC-β using the general protocol described in Example 1. […] It is worth noting in this regard that PKC-α and PKC-β belong to the same sub-group of PKCs (cPKCs).

Where a SMILES comes first, the peptide text is derived from it. Where no end group is shown, it is not given here. The star is where a group is joined. PNA(A) = NCCN(CC(=O)*)C(=O)Cn1cnc2c(N)ncnc21

One may read the inhibition as the relative decrease from the control value, in per cent.

T3 sequence (P05771 whole entry): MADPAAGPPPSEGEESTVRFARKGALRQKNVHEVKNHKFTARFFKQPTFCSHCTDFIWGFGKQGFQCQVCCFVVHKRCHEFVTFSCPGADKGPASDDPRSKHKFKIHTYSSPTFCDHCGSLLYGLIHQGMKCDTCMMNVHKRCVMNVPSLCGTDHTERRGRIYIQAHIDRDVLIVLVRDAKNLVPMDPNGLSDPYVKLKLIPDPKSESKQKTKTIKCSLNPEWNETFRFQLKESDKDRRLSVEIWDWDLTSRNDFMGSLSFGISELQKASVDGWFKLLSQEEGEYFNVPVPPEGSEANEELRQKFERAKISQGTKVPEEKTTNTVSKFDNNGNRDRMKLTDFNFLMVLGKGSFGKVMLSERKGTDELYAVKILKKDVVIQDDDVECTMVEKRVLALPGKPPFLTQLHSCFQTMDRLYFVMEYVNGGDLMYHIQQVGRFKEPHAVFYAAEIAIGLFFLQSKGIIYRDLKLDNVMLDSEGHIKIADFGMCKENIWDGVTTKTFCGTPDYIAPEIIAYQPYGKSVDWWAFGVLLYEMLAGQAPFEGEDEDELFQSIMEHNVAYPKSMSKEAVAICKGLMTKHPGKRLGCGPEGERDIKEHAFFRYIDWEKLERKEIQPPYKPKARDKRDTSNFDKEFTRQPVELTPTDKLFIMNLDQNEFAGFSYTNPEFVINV
Sequence of PKC beta 1 (P05771 whole entry): as above
Sequence of PKC delta (Q05655 whole entry): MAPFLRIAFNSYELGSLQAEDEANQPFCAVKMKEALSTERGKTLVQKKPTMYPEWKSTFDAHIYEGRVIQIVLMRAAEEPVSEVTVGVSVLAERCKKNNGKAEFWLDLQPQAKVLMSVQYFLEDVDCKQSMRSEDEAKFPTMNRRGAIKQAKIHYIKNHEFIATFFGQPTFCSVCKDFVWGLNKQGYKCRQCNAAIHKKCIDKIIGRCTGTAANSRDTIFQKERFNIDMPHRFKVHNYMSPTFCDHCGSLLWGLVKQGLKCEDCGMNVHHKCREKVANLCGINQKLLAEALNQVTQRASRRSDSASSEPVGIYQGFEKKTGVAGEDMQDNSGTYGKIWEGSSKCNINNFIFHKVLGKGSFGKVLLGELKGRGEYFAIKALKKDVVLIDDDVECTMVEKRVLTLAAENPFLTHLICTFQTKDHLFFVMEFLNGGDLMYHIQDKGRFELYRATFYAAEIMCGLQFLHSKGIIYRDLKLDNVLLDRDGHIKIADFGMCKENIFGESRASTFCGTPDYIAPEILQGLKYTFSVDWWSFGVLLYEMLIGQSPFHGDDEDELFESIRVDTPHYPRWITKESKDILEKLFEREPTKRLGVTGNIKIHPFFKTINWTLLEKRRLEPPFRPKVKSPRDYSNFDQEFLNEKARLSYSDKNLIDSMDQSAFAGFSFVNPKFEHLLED

Regarding `Cn1c2ccccc2c2c3c(c4c5ccccc5n(CCC#N)c4c21)CNC3=O` [Go6976], the “inactivation of cPKCs (MARCKS phosphorylation)” value in data set [1] (30 min) was “still very low”. Further, the “inactivation of cPKCs (phospho-MARCKS levels)” value in data set [1] (24 h) is listed as “obvious”.
As for `CC[C@H](C)[C@H](NC(=O)[C@H](CO)NC(=O)[C@@H](NC(=O)CNC(=O)[C@@H](NC(=O)[C@H](CC(C)C)NC(=O)[C@H](CC(N)=O)NC(=O)[C@H](CCC(N)=O)NC(=O)[C@H](C)NC(=O)[C@H](CC(=O)OC)NC(=O)[C@H](CCCCN)NC(=O)CNC(=O)CNC(=O)CNC(=O)CNC(=O)CNC(=O)CNC(=O)CNC(=O)[C@H](CC(C)C)NC(=O)[C@H](CCCNC(=N)N)NC(=O)[C@H](Cc1ccccc1)NC(=O)[C@H](CCCCNC(=O)CN(CCN)C(=O)Cn1cnc2c(N)ncnc21)NC(=O)[C@H](CCCNC(=N)N)NC(=O)[C@H](CCCNC(=N)N)NC(=O)[C@H](Cc1ccccc1)NC(C)=O)[C@@H](C)CC)[C@@H](C)CC)C(N)=O` [TIM 15] (Ac-FRRK(PNA(A))FRLGGGGGGGKD(OMe)AQNLIGISI-NH2), in [2], the “apoptosis of peripheral blood lymphocytes” value is “do not induce apoptosis”. For the same compound, the “blastogenic response to mitogens” value in data set [2] is reported as “do not drastically limit the blastogenic response”. The inhibition at 15 µM is 9% in [3] (15.0 μM, read-out: % Inhibition PKC-ε); 18.8% in data set [4] (15.0 μM, read-out: % Inhibition PKC-βI); 32.1% in data set [5] (15.0 μM, read-out: % Inhibition PKC-α); 18.6% in [6] (15.0 μM, read-out: % Inhibition PKC-δ). In addition, the inhibition at 30 µM in data set [3] (30.0 μM, read-out: % Inhibition PKC-ε) is 81%; in data set [4] (30.0 μM, read-out: % Inhibition PKC-βI) it was -69%; in data set [5] (30.0 μM, read-out: % Inhibition PKC-α) it was 21.8%; in [6] (30.0 μM, read-out: % Inhibition PKC-δ), 21.8%.
On to `COc1cccc2c1C(=O)c1c(O)c3c(c(O)c1C2=O)C[C@@](O)(C(=O)CO)C[C@@H]3O[C@H]1C[C@H](N)[C@H](O)[C@H](C)O1` [doxorubicin], for which, in data set [7], the cell survival result is on record as “a large proportion of the cells survived”.
As for “Ac—FRRCFRL—(G)7—AKGIQEVKGGDAQNLIGISI—NH2 (Ac-FRRCFRLGGGGGGGAKGIQEVKGGDAQNLIGISI-NH2) [TIM 18, PRE 3 and PKI 4]”, the “inhibition of PKC epsilon activity (in words)” value in [3] (Kinase-Glo) was “no effect”. The “inhibition of PKC beta 1 activity (in words)” value in data set [4] was “inhibits the activity”. In [5] (2.5 μM), the “% Inhibition PKC-α” value is listed as 16.4%. The “inhibition of PKC alpha activity (in words)” value in [5] is recorded as “very potent inhibitor”. Besides, the “% Inhibition PKC-δ” value came out at 56.3% in [6] (5.0 μM) and 85.1% in data set [6] (30.0 μM). The “inhibition of PKC delta activity (in words)” value in data set [6] is recorded as “inhibits the activity”.
Take “Ac—FRRCFRL—(G)7—KDAQNLIGISI—NH2 (Ac-FRRCFRLGGGGGGGKDAQNLIGISI-NH2) [TIM 21, PRE 4 and PKI 4]”: the “% Inhibition PKC-ε” value in data set [3] (5.0 μM) is −5%; in data set [3] (30.0 μM), 52%. In addition, the “% Inhibition PKC-βI” value in data set [4] (5.0 μM) worked out at 11%; in data set [4] (30.0 μM) it was 13.9%. For the same compound, the “inhibition of PKC beta 1 activity (in words)” value in data set [4] is reported as “not active”. Besides, the entries for the “% Inhibition PKC-α” value in [5] (15.0 μM) and in data set [5] (30.0 μM) were 64.3% and 95.2%, respectively. Besides, in data set [5], the “inhibition of PKC alpha activity (in words)” value is “at a lesser extent”. Also, the “% Inhibition PKC-δ” value in data set [6] (2.5 μM) came out at 26.2%. For the same compound, the “inhibition of PKC delta activity (in words)” value in [6] is “exceptionally good inhibitor”.
Consider KDAQNLIGISL-NH2 [PRE 2], for which the “Band Intensity” value was 0.917 in [8] (75 μg); 0.192 in data set [8] (300 μg); 0.0103 in data set [9] (Example 3 (control 0.759)); 0.0322 in data set [10]; 0.800 in data set [11] (75 μg); 0.403 in data set [11] (300 μg). In addition, the “Inhibition (%)” value in data set [8] (75 μg) turned out to be 56.1%; in data set [8] (300 μg), 90.9%; in [9] (Example 3), 99.9%; in data set [10], 54.7%; in data set [11] (75 μg), 31.0%; in data set [11] (300 μg) it was 65.3%. Further, the “Relative Intensity (%)” value in data set [8] (75 μg) was determined as 43.9%; in data set [8] (300 μg), 9.1%; in data set [9] (Example 3), 0.135%; in data set [10], 45.3%; in [11] (75 μg) it was 69.0%; in [11] (300 μg), 34.7%.

Source of the values: patent US20110039770A1, “INHIBITORS OF PROTEIN KINASE C ISOFORMS AND USES THEREOF” (PHARMAGAP INC., priority 2005, published 2011).
